T1: hu-FGFR1c-His (human, UniProt P11362 22-376)
T1 construct: also called human FGFR1c; not shown: His tag
T1 sequence: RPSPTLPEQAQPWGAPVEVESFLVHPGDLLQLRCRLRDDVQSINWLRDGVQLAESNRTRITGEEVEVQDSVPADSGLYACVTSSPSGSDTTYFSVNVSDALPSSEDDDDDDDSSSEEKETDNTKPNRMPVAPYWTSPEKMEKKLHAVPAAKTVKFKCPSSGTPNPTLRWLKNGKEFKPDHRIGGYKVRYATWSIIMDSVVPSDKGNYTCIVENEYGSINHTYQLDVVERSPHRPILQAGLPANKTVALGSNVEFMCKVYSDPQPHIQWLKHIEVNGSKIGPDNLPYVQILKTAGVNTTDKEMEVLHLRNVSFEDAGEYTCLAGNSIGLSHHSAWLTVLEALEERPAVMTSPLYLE

B1: 2G10-Rm26 (bispecific antibody, human IgG1, lambda, N297Q)
heavy: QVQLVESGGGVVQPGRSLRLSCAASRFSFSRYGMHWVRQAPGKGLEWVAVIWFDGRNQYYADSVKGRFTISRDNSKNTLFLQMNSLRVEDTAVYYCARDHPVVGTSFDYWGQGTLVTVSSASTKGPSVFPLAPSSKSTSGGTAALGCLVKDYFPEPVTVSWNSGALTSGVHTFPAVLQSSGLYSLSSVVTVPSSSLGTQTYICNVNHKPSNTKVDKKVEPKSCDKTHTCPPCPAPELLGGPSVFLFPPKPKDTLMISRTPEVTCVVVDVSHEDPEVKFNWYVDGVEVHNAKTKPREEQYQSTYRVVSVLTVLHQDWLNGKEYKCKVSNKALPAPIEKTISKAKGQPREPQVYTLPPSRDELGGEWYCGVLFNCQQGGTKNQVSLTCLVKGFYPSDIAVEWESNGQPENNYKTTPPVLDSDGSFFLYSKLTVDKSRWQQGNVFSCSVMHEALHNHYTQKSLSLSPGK
light: QSVLTQPPSVSAAPGQKVTVSCSGSSSNIGNNYVSWYQQLPGTAPKLLIYDNNKRPSGIPDRFSGSKSGTSATLGITGLQTGDEAEYYCGTWDSSLSVVAFGGGTKLTVLGQPKANPTVTLFPPSSEELQANKATLVCLISDFYPGAVTVAWKADGSPVKAGVETTKPSKQSNNKYAASSYLSLTPEQWKSHRSYSCQVTHEGSTVEKTVAPTECS
notes: also called H2-Rm26
B2: 2G10-Rm40 (bispecific antibody, human IgG1, lambda, N297Q)
heavy: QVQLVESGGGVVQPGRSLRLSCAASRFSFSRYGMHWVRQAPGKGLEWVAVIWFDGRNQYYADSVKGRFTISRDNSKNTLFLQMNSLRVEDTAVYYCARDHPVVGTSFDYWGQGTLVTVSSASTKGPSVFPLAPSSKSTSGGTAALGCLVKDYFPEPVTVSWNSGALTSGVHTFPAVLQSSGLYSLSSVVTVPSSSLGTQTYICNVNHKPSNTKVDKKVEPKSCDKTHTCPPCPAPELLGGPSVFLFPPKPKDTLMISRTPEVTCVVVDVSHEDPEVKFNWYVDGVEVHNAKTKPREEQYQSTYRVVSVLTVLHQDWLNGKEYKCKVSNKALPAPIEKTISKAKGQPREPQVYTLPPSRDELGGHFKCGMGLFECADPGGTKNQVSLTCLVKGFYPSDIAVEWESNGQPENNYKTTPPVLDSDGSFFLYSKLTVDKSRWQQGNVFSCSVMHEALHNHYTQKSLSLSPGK
light: B1 light
notes: also called H2-Rm40
B3: 1A2-Rm26 (bispecific antibody, human IgG1, kappa, N297Q, V domains shown)
VH: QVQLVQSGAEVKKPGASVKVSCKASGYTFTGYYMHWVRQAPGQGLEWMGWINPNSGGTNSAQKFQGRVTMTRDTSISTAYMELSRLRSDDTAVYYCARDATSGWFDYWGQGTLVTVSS
VL: DIVMTQTPLSSPVTLGQPASISCRSSQSLVYSDGNTYLSWLQQRPGQPPRLLIYKISNRFSGVPDRFSGSGAGTDFTLKISRVEADDVGIYYCMQAIEFPWTFGQGTQVEIKR
notes: also called H1-Rm26

Biological target: T1, hu-FGFR1c-His
Assay: ELISA (Example 10), antigen on plate (FIG. 13)

Row | binding result | Binder
1 | binds | HFKCGMGLFECADP [Rm40]
2 | binds | EWYCGVLFNCQQ [Rm26]
3 | binds | YQAWGYYV [SR4]

Biological target: T1, hu-FGFR1c-His
Assay: ELISA (Example 10), antigen on plate, anti-hu-Fc-HRP detection (FIG. 13)
Protocol: Biotin-hu-β-Klotho-His, biotin-mu-βKlotho-His, hu-FGFR1c-His, and mu-FGFR1c-Fc were expressed and purified. Anti-Fc-HRP was purchased from Thermo Fisher Scientific (Rockford, Ill.). Neutravidin 96 well plates (Thermo Fisher Scientific; Rockford, Ill.) were coated with 2 μg/ml biotin-hu-β-Klotho-His or biotin-mu-β-Klotho-His in PBS (Invitrogen; Carlsbad, Calif.). Maxisorp 96 well plates (Thermo Fisher Scientific; Rockford, Ill.) were coated with 2 μg/ml hu-FGFR1c-His or mu-FGFR1c-Fc in PBS. Plates were then incubated at 4° C. overnight. Plates were blocked in 2% milk-PBS at room temperature for 1 hour. Each well was then incubated 1 hour with samples diluted in 2% milk-PBS. Plates were washed 3 times with 300 μl PBS/0.1% Tween20 (Invitrogen; Carlsbad, Calif. and Sigma-Aldrich; St. Louis, Mo.). Anti-hu-Fc-HRP was diluted 1:10000 in 2% milk-PBS and added to each well. Plates were again washed 3 times with 300 μl PBS/0.1% Tween20. Lumiglo reagent (KPL; Gaithersburg, Md.) was added and luminescence was measured (Perkin Elmer; Waltham, Mass.).

Row | binding result | Binder
4 | binds | B1
5 | binds | B2
6 | binds | B3

— patent publication US20130129725A1 (Amgen, published 2013)
